Consider four molecules from PMC8260353 (Nature, 2021).

Assay [1] addresses T1, human immunodeficiency virus-1 (HIV-1) envelope trimer (BG505 DS-SOSIP) (HIV-1 group M subtype A, isolate BG505, UniProt Q2N0S6, stabilised).
The target in assay [2] is T1, human immunodeficiency virus-1 (HIV-1) …. Nature of the assay: BLI; BG505 DS-SOSIP binding to immobilized VHH9 nanobody; kinetic fit. Particulars: both partners purified. In general terms: Biolayer interferometry detects binding as a change in optical thickness at a sensor tip.
Assay [3] has as its target T2, bivalent Nb30 (Nb30 fused to human IgG1 Fc) (nanomouse (mouse with camelid VHH genes)).
T2 construct: also called Nb30 (bivalent)
Nature of the assay: BLI. Particulars: both partners purified.

Assay [4] deals with T3, Nb12 trimer (three Nb12 units with GGGGS(x3) linkers, fused to human IgG1 Fc) (nanomouse (mouse with camelid VHH genes)).
T3 construct: also called trivalent Nb12
Nature of the assay: BLI. Particulars: both partners purified.

Residue numbers refer to the chain shown, from its start. Where two headings read alike, the source gives them in different places.

T2 sequence (heavy, as listed by the source): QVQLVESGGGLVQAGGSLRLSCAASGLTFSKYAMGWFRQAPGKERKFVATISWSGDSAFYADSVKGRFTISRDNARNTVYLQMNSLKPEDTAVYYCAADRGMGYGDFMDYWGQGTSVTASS

B1: VHH9-2 (VHH)
VHH: QVKLEESGGGSVQAGGSLRLSCTAPGFTSNSCGMAWYRQAPGKEREFVSSISTDGTTSYADSVKGRFTISKDKAKDTVYLQMNSLKPEDTAMYSCKTYGPYCYFDVWGAGTTVTVSS
For the molecule B1, in assay [1], the binding result is on record as “binds”.

B2: VHH9-1 (nanobody from nanomouse immunized with BG505 DS-SOSIP) (VHH)
VHH: B1 VHH with Q1E, K3H, E5V, A24T, V113L
Regarding B2, the binding result in assay [2] was “binds”.

B3: VHH9-3 (VHH)
VHH: B1 VHH with S117A
B3: the binding result in assay [1] is on record as “binds”.

B4: SARS-CoV RBD fused to the Fc region of human IgG1 (Fc fusion)
chain: not shown
As for B4, the binding result in assay [3] and in assay [4] was “binds” each time.
